Experimental findings from paper PMC7910607, “Structure-guided insights into heterocyclic ring-cleavage catalysis of the non-heme Fe (II) dioxygenase NicX” (Nature Communications, 2021) are described below.

For data set [1], the target named is T1, NicX (2,5-dihydroxypyridine dioxygenase) (Pseudomonas putida, UniProt Q88FY1).
T1 construct: full-length WT in pET-24a, C-terminal 6xHis tag, E. coli BL21(DE3), ~39 kDa, homohexamer, mononuclear Fe(II); domains residues 2-151 and 152-350
T1 sequence (Q88FY1 1-350): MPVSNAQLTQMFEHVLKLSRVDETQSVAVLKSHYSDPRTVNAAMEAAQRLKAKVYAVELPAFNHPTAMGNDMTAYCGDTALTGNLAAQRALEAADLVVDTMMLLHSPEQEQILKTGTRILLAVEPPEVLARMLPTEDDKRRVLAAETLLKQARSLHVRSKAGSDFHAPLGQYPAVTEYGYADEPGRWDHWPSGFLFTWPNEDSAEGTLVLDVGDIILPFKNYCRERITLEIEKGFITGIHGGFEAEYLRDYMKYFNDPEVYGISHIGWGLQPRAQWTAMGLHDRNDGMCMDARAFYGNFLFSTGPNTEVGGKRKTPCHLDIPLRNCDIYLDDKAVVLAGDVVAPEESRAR
Put plainly: X-ray crystal structure, […] Å, soaked crystals. It counts as binding. As to conditions: soaked with 5 mM Fe2+, then 5 mM DHP and 20 mM sodium dithionite.

In another data set the test system is T2, Oc1ccc(O)nc1.
T2 construct: full-length WT in pET-24a, C-terminal 6xHis tag, E. coli BL21(DE3), ~39 kDa, homohexamer, mononuclear Fe(II); domains residues 2-151 and 152-350
The data set can be described thus: purified protein. It counts as biochemical, Pseudomonas putida. Conditions: 20 mM Tris-HCl pH 8.0, 50 µM FeCl2, 25 °C, O2 (air).

Substrate in the data set “purified protein”: Oc1ccc(O)nc1
The data set can be described thus: purified protein. It counts as biochemical, Pseudomonas putida. As to conditions: 20 mM Tris-HCl pH 8.0, 50 µM FeCl2, 25 °C, O2 (air).

Data set [2] deals with the molecule itself. Put plainly: crystal structure; hanging-drop vapor diffusion at 20 °C, 20% PEG 3350, pH 7.0; six molecules in the asymmetric unit; also crystals soaked with Fe2+ and DHP.

For the molecule `Oc1ccc(O)nc1` [DHP, 2,5-dihydroxypyridine], the “X-ray crystal structure, 2.20 Å, soaked crystals” value in data set [1] (active site of subunits C, D, E, F) is “four subunits (C, D, E, and F) of the six constituent molecules”. As for `O=CNC(=O)/C=C\C(=O)O` [NFM, N-formylmaleamic acid], the “X-ray crystal structure, 2.20 Å, soaked crystals” value in data set [1] (active site of subunits A and B, formed in crystal from DHP) is “the other subunits (A and B) contain the product NFM”. Take “NicX (2,5-dihydroxypyridine dioxygenase) (Pseudomonas putida KT2440; E308A)”: in the data set on Oc1ccc(O)nc1, the Km amounted to 95.85 ± 3.68 µM. On the same count and under the same terms, for “NicX (2,5-dihydroxypyridine dioxygenase) (Pseudomonas putida KT2440; V175F)” the value was 117.9 ± 3.68 µM.

B1: NicX (2,5-dihydroxypyridine dioxygenase) (Pseudomonas putida KT2440) (protein)
chain: T1 sequence (Q88FY1 1-350)
notes: full-length WT in pET-24a, C-terminal 6xHis tag, E. coli BL21(DE3), ~39 kDa, homohexamer, mononuclear Fe(II); domains residues 2-151 and 152-350
As for B1, the Km in “purified protein” was 94.9 ± 3.84 µM.

B2: SeMet-substituted NicX (enzyme, Pseudomonas putida KT2440, UniProt Q88FY1 1-350, looked up)
chain: T1 sequence (Q88FY1 1-350)
modifications: selenomethionine (SeMet) substituted
notes: NicX, 2,5-dihydroxypyridine dioxygenase of Pseudomonas putida KT2440, selenomethionine-substituted form of the full-length construct; Same construct as m1, expressed with selenomethionine for SAD phasing; also called SeMet-NicX; Se-NicX; source: E. coli B834(DE3) in M9 minimal media, purified (Ni-NTA, Superdex200 gel filtration)
Regarding B2, the binding result in data set [2] is “binds”.

B3: 2,5-Dihydroxypyridine dioxygenase (NicX) from Pseudomonas putida KT2440 (enzyme, UniProt Q88FY1 1-350, looked up)
chain: T1 sequence (Q88FY1 1-350)
notes: NicX, 2,5-dihydroxypyridine dioxygenase of Pseudomonas putida KT2440, full-length wild type; residues 2-350 described in the structure; Cloned into pET-24a between NdeI and HindIII with a C-terminal His tag; in PDB 7CN3 the crystals were soaked with Fe2+ and DHP (subunits C-F hold DHP, A and B hold NFM); also called WT NicX; wild type NicX; source: E. coli BL21(DE3), purified (Ni-NTA, Superdex200 …)
On to B3, for which the “stoichiometry N” value in data set [2] was found to be 6.
